Results: patent publication US20160015827A1
Values joined by “and” are separate entries in the source; they are usually repeats but may differ in a detail not shown here. Identical values can stand only once.

Tests used:
[1] = target: human folate receptor alpha (FRA) (human) (UniProt P15328); assay: flow cytometry on OVCAR-3 cells, 10 µg/mL
[2] = target: human folate receptor alpha (FRA) (human) (UniProt P15328); assay: flow cytometry on SK-OV-3 cells, 10 µg/mL
[3] = target: human folate receptor alpha (FRA) (human) (UniProt P15328); assay: flow cytometry on NCI-H292 cells, 10 µg/mL
[4] = target: human folate receptor alpha (FRA) (human) (UniProt P15328); assay: flow cytometry on NCI-H2110 cells, 10 µg/mL
[5] = target: human folate receptor alpha (FRA) (human) (UniProt P15328); assay: flow cytometry on SK-OV-3 cells, secondary antibody alone (background)
[6] = target: human folate receptor alpha (FRA) (human) (UniProt P15328); assay: flow cytometry on OVCAR-3B cells, secondary antibody alone (background)
[7] = target: human folate receptor alpha (FRA) (human) (UniProt P15328); assay: flow cytometry on NCI-H292 cells, secondary antibody alone (background)
[8] = target: human folate receptor alpha (FRA) (human) (UniProt P15328); assay: flow cytometry on NCI-H2110 cells, secondary antibody alone (background)

Sequence of human folate receptor alpha (FRA) (human) (P15328 25-234 limits assumed): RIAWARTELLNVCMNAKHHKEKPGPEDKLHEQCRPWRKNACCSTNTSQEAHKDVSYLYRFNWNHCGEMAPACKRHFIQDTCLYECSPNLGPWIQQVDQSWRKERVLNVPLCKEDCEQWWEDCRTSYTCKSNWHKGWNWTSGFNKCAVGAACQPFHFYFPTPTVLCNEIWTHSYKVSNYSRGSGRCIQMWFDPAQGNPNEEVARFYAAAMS

Substance isotype control antibody human IgG has an MFI [1] of 7 MFI, an MFI [2] of 6 MFI and an MFI [3] of 6 MFI. The MFI [4] was 5 MFI.
“goat F(ab')2-anti-human IgG (H+L)-RPE or goat anti-human IgG-RPE (antibody)” was tested, and the MFI [5] was 6 MFI and 5 MFI, the MFI [6] was 5 MFI and the MFI [7] was 6 MFI. It also gave an MFI [8] of 5 MFI.
